Read-outs that look alike come from different tables or passages of the source.
Key:
[1] = biological target: ziv-aflibercept (Zaltrap, 25 mg/mL) (human); assay: SEC; as a9; sample: ziv-AFL 25 mg/mL, 2 freeze-thaw cycles
[2] = biological target: ziv-aflibercept (Zaltrap, 25 mg/mL) (human); assay: SEC; as a9; sample: ziv-AFL medicine adjusted to pH 7.2
[3] = biological target: ziv-aflibercept (Zaltrap, 25 mg/mL) (human); assay: SEC; as a9; sample: ziv-AFL medicine adjusted to pH 5.2
[4] = biological target: ziv-aflibercept (Zaltrap, 25 mg/mL) (human); assay: SEC; as a9; sample: ziv-AFL diluted in NaCl 1.5 M
[5] = biological target: ziv-aflibercept (Zaltrap, 25 mg/mL) (human); assay: SEC; SE-HPLC/DAD, SEC-5 column, 25 °C, 150 mM phosphate pH 7.0, 0.35 mL/min, 1 ul injected; masses estimated from the column calibration; sample: fresh (control) ziv-AFL 25 mg/mL
[6] = biological target: ziv-aflibercept (Zaltrap, 25 mg/mL) (human); assay: SEC; as a9; sample: ziv-AFL 25 mg/mL, 60 °C for 2 h
[7] = biological target: ziv-aflibercept (Zaltrap, 25 mg/mL) (human); assay: SEC; as a9; sample: ziv-AFL 25 mg/mL, 60 °C for 1 h
[8] = biological target: ziv-aflibercept (Zaltrap, 25 mg/mL) (human); assay: SEC; as a9; sample: ziv-AFL 25 mg/mL, 1 freeze-thaw cycle
[9] = biological target: ziv-aflibercept (Zaltrap, 25 mg/mL) (human); assay: SEC; as a9; sample: ziv-AFL 25 mg/mL, light irradiation (250 W/m^2) for 12 h
[10] = biological target: ziv-aflibercept (Zaltrap, 25 mg/mL) (human); assay: SEC; as a9; sample: ziv-AFL 25 mg/mL, 60 °C for 3 h
[11] = biological target: ziv-aflibercept (Zaltrap, 25 mg/mL) (human); assay: SEC; as a9; sample: ziv-AFL diluted in GndHCl 8 M
VEGF [12] = biological target: VEGF (UniProt P15692); assay: ELISA; as a1; sample: ziv-AFL medicine adjusted to pH 7.2 with 1 M NH3
VEGF [13] = biological target: VEGF (UniProt P15692); assay: ELISA; as a1; sample: ziv-AFL medicine adjusted to pH 5.2 with 0.1 M HCl
[14] = biological target: ziv-aflibercept (Zaltrap, 25 mg/mL) (human); assay: SEC; as a9; sample: ziv-AFL 25 mg/mL, light irradiation (250 W/m^2) for 12 h; remark: listed apart in the source
VEGF-A165 (Homo sapiens) [15] = biological target: VEGF-A165 (Homo sapiens) (UniProt P15692); conditions: cited from earlier work
Chain of VEGF-A165 (Homo sapiens) (P15692 whole entry): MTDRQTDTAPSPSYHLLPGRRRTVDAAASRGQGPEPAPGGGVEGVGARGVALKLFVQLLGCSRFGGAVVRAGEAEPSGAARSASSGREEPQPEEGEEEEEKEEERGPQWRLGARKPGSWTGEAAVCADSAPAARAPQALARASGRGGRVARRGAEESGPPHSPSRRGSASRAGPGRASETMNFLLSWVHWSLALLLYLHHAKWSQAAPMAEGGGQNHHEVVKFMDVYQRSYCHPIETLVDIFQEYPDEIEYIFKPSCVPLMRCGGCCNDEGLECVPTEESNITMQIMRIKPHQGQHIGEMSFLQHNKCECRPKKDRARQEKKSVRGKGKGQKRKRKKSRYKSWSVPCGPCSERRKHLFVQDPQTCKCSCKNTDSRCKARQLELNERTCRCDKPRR

VEGF-A165 (Homo sapiens) [16] = biological target: VEGF-A165 (Homo sapiens) (UniProt P15692); conditions: cited from earlier work; remark: listed apart in the source
[17] = SEC; as a9; sample: ziv-AFL medicine adjusted to pH 5.2
[18] = SEC; as a9; sample: ziv-AFL diluted in NaCl 1.5 M
[19] = SEC; as a9; sample: ziv-AFL 25 mg/mL, 60 °C for 1 h
[20] = SEC; as a9; sample: ziv-AFL 25 mg/mL, 60 °C for 3 h
[21] = SEC; as a9; sample: ziv-AFL diluted in GndHCl 8 M

Chain of ziv-aflibercept (Zaltrap, 25 mg/mL) (Fc fusion) (chain): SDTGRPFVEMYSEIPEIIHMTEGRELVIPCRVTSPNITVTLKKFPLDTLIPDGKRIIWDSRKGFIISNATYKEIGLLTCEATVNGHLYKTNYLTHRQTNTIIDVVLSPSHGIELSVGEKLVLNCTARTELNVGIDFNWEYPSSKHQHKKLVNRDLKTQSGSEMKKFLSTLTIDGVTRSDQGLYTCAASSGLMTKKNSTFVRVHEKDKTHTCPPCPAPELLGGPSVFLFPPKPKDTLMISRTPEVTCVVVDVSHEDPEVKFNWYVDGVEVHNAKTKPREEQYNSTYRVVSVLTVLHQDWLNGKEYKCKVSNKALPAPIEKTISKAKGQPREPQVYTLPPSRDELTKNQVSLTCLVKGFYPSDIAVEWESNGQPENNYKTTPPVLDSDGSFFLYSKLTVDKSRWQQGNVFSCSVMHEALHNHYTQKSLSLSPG
Chain of ziv-aflibercept (Zaltrap, 25 mg/mL) (chain): as above
Chain of VEGFR1 (P17948 27-1338): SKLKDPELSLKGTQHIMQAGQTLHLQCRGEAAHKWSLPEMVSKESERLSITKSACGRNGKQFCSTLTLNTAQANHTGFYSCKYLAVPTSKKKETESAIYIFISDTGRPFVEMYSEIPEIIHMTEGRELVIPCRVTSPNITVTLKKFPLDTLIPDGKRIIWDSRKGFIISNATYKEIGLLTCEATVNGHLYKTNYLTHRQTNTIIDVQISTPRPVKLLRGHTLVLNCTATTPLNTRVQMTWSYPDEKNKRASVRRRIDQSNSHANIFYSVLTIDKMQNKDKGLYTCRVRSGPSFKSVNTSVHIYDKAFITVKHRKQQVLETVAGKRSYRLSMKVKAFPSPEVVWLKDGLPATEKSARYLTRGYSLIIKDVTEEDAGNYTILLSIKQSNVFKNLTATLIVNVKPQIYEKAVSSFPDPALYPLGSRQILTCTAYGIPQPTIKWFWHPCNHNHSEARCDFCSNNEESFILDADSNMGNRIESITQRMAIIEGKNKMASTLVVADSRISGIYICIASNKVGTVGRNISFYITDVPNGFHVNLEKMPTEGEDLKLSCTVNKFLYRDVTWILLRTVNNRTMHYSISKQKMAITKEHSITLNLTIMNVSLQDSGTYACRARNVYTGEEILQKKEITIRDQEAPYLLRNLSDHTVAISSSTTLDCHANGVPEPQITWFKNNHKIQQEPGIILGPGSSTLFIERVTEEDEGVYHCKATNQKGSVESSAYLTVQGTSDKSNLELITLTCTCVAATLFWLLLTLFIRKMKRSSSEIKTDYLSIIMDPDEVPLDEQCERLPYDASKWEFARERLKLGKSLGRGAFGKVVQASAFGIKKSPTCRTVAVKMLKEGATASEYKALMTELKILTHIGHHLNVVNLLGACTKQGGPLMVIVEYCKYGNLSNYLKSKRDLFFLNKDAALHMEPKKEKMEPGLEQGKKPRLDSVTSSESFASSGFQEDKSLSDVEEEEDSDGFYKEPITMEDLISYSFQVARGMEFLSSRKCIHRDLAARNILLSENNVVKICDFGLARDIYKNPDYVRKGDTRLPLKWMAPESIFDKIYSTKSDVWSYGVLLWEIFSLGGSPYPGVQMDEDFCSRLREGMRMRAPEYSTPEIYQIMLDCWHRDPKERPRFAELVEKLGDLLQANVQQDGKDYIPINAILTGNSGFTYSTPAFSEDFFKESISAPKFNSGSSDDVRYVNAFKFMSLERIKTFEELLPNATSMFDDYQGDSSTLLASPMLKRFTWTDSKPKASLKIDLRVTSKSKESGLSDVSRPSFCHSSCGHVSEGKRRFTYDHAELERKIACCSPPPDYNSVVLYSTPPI
Chain of VEGFR2 (P35968 20-1356): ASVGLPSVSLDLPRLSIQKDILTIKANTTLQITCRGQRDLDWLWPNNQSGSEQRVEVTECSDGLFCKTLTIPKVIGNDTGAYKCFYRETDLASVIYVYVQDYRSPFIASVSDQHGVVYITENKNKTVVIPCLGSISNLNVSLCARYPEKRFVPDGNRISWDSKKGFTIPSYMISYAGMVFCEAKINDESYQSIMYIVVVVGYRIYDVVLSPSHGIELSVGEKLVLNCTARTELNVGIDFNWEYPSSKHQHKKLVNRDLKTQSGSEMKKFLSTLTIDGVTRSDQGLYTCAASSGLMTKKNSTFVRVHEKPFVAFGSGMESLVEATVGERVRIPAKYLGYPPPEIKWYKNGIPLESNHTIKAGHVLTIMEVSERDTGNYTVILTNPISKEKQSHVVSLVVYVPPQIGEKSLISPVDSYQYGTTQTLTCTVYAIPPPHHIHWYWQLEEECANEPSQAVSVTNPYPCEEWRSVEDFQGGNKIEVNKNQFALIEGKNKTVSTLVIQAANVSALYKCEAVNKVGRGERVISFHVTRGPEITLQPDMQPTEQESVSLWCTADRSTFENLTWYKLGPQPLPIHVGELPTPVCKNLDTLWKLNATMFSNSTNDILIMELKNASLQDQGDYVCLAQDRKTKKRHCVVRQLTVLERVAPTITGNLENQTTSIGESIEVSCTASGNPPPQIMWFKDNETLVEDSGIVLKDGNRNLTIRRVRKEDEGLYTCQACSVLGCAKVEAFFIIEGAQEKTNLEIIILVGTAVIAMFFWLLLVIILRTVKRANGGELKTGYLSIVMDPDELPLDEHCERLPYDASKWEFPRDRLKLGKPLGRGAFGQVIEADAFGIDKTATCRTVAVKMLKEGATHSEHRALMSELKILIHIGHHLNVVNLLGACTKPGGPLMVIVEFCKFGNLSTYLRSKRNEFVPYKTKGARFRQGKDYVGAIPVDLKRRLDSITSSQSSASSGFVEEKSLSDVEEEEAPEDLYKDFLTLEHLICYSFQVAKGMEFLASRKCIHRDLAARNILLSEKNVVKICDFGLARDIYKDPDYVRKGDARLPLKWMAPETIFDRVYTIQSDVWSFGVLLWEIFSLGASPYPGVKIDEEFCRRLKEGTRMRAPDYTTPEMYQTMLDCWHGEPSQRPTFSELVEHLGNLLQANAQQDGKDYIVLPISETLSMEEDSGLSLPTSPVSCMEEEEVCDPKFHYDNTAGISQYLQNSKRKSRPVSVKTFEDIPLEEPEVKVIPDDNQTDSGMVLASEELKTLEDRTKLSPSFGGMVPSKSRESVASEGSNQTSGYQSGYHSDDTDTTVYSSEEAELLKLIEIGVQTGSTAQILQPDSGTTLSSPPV

Substance: ziv-aflibercept (Zaltrap, 25 mg/mL) (Fc fusion)
- abundance of dimer (% of total peak area) [1]: 2.1%
- abundance of dimer (% of total peak area) [2]: 1.8%
- abundance of dimer (% of total peak area) [3]: 2%
- abundance of dimer (% of total peak area) [4]: 1.4%
- abundance of dimer (% of total peak area) [5]: 1.9%
- stoichiometry N [5]: 2
- abundance of dimer (% of total peak area) [6]: 7.8%
- stoichiometry N [6]: 10
- abundance of dimer (% of total peak area) [7]: 8%
- abundance of dimer (% of total peak area) [8]: 1.9%
- abundance of dimer (% of total peak area) [9]: 12.2%
- abundance of dimer (% of total peak area) [10]: 7.7%
- abundance of dimer (% of total peak area) [11]: 19%
- remaining biological activity (ELISA against the control, test samples at 10 and 100 µg/ml) (VEGF [12]): 36%
- remaining biological activity (ELISA against the control, test samples at 10 and 100 µg/ml) (VEGF [13]): 25%
- abundance of dimer (% of total peak area) [14]: 12.4%

Substance: VEGFR1 (from UniProt P17948)
- Kd (VEGF-A165 (Homo sapiens) [15]): 9.33 pM

Substance: VEGFR2 (from UniProt P35968)
- Kd (VEGF-A165 (Homo sapiens) [16]): 88.8 pM

Substance: ziv-aflibercept (Zaltrap, 25 mg/mL)
- abundance of non-natural HMW aggregates (% of total peak area) [17]: 0.8%
- abundance of non-natural HMW aggregates (% of total peak area) [18]: 1.1%
- abundance of non-natural HMW aggregates (% of total peak area) [19]: 22.1%
- abundance of non-natural HMW aggregates (% of total peak area) [20]: 55.2%
- abundance of non-natural HMW aggregates (% of total peak area) [21]: 7.2% and a higher order of aggregation at 5.46 min (5.56%)
